Blank lines part the entries; values can stand above or below the substance they belong to.
Assays:
reep6_human REEP6 = reep6_human REEP6 (UniProt Q96HR9)
atrap_human AGTRAP = atrap_human AGTRAP (UniProt Q6RW13)
tfp11_human TFIP11 = tfp11_human TFIP11 (UniProt Q9UBB9)
nqo2_human NQO2 = molecular target: T1, nqo2_human NQO2 (UniProt P16083)
T1 sequence: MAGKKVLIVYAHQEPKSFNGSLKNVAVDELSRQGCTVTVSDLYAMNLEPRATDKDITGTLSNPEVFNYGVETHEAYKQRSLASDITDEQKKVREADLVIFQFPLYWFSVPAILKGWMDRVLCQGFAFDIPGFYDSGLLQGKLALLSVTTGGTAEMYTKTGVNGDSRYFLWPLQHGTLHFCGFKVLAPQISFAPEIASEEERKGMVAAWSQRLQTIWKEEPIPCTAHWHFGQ

rgs3_human RGS3 = rgs3_human RGS3 (UniProt P49796)
stox1_human STOX1 = stox1_human STOX1 (UniProt Q6ZVD7)
fosl2_human FOSL2 = molecular target: T2, fosl2_human FOSL2 (UniProt P15408)
T2 sequence: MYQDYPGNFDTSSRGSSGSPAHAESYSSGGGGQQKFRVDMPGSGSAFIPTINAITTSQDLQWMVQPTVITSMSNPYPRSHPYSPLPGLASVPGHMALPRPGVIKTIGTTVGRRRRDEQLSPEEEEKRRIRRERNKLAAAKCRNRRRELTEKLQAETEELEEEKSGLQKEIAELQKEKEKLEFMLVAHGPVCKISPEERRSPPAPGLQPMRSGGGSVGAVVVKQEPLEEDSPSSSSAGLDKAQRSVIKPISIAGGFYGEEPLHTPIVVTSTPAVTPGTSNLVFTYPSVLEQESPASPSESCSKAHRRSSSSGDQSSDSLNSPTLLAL

mycd_human MYOCD = molecular target: T3, mycd_human MYOCD (UniProt Q8IZQ8)
T3 sequence: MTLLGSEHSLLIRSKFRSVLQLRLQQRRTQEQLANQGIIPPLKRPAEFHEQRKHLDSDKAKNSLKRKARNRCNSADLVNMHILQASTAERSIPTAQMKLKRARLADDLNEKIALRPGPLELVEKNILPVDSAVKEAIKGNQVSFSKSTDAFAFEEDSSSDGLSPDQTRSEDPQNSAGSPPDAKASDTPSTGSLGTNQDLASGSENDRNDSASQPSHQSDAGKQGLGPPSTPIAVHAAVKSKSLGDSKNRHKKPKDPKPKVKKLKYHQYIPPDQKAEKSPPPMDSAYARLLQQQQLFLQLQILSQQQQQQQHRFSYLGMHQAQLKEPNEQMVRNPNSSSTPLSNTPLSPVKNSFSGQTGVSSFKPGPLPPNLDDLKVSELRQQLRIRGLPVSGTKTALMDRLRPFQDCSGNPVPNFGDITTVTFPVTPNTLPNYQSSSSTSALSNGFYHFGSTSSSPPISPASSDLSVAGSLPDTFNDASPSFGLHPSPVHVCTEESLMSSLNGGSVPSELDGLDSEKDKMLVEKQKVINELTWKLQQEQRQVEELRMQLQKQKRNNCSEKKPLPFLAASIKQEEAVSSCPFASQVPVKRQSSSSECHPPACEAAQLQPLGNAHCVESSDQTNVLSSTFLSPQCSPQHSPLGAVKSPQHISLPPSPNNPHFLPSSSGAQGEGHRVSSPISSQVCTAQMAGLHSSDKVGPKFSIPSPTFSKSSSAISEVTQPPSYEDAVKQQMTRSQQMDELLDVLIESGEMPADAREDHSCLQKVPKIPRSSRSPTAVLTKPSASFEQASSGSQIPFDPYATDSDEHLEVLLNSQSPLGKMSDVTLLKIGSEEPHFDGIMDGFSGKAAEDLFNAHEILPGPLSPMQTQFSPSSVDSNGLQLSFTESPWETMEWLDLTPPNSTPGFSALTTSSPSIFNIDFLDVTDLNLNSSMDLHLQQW

gt253_human CERCAM = gt253_human CERCAM (UniProt Q5T4B2)
vtnc_human VTN = vtnc_human VTN (UniProt P04004)
pdli7_human PDLIM7 = pdli7_human PDLIM7 (UniProt Q9NR12)
leg9b_human LGALS9B = leg9b_human LGALS9B (UniProt Q3B8N2)
anr44_human ANKRD44 = anr44_human ANKRD44 (UniProt Q8N8A2)
snrpa_human SNRPA = snrpa_human SNRPA (UniProt P09012)
ptbp2_human PTBP2 = ptbp2_human PTBP2 (UniProt Q9UKA9)
S100A1 = S100A1 (UniProt P23297)
frih_human FTH1 = frih_human FTH1 (UniProt P02794)
FBP1 = FBP1 (UniProt P09467)
phs_human PCBD1 = phs_human PCBD1 (UniProt P61457)
scel_human SCEL = scel_human SCEL (UniProt O95171)
cdkl3_human CDKL3 = cdkl3_human CDKL3 (UniProt Q8IVW4)
ptps_human PTS = ptps_human PTS (UniProt Q03393)
lcp2_human LCP2 = lcp2_human LCP2 (UniProt Q13094)
ap2m1_human AP2M1 = ap2m1_human AP2M1 (UniProt Q96CW1)
tb22b_human TBC1D22B = tb22b_human TBC1D22B (UniProt Q9NU19)
pram_human PRAM1 = pram_human PRAM1 (UniProt Q96QH2)
ubql1_human UBQLN1 = ubql1_human UBQLN1 (UniProt Q9UMX0)
rhxf2_human RHOXF2 = molecular target: T4, rhxf2_human RHOXF2 (UniProt Q9BQY4)
T4 sequence: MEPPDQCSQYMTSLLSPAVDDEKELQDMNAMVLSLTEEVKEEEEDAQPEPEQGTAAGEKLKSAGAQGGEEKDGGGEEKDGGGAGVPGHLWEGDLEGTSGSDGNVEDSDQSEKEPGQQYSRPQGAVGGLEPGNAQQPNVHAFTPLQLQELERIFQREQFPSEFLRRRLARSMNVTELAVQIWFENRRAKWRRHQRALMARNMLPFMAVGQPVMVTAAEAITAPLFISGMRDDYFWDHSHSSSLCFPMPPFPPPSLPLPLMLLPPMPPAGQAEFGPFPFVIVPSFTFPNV

odam_human ODAM = molecular target: T5, odam_human ODAM (UniProt A1E959)
T5 sequence: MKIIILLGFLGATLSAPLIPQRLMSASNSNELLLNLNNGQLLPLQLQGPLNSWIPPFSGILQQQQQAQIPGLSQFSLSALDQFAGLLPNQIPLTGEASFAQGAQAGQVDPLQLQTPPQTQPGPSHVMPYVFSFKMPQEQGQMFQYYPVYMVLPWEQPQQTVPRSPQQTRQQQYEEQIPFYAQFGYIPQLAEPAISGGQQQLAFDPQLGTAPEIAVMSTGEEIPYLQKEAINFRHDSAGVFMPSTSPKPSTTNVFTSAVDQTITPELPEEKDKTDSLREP

tom1_human TOM1 = tom1_human TOM1 (UniProt O60784)
naif1_human NAIF1 = naif1_human NAIF1 (UniProt Q69YI7)
ccdb1_human CCNDBP1 = ccdb1_human CCNDBP1 (UniProt O95273)
jkip2_human JAKMIP2 = jkip2_human JAKMIP2 (UniProt Q96AA8)
nf2l2_human NFE2L2 = nf2l2_human NFE2L2 (UniProt Q16236)
efs_human EFS = efs_human EFS (UniProt O43281)
stat3_human STAT3 = stat3_human STAT3 (UniProt P40763)
pgbd1_human PGBD1 = pgbd1_human PGBD1 (UniProt Q96JS3)
zn446_human ZNF446 = zn446_human ZNF446 (UniProt Q9NWS9)
zsc32_human ZSCAN32 = zsc32_human ZSCAN32 (UniProt Q9NX65)
zn496_human ZNF496 = zn496_human ZNF496 (UniProt Q96IT1)
cep70_human CEP70 [1] = molecular target: cep70_human CEP70 (UniProt Q8NHQ1)
kr101_human KRTAP10-1 = kr101_human KRTAP10-1 (UniProt P60331)
cep70_human CEP70 [2] = molecular target: cep70_human CEP70 (UniProt Q8NHQ1); remark: listed apart in the source
tri41_human TRIM41 [3] = molecular target: tri41_human TRIM41 (UniProt Q8WV44)
zc4h2_human ZC4H2 = zc4h2_human ZC4H2 (UniProt Q9NQZ6)
tri41_human TRIM41 [4] = molecular target: tri41_human TRIM41 (UniProt Q8WV44); remark: listed apart in the source
cep70_human CEP70 [5] = molecular target: cep70_human CEP70 (UniProt Q8NHQ1); remark: listed apart in the source
cc136_human CCDC136 = cc136_human CCDC136 (UniProt Q96JN2)
mtus2_human MTUS2 = mtus2_human MTUS2 (UniProt Q5JR59)
mtus2_human MTUS2, sequence (Q5JR59 whole entry): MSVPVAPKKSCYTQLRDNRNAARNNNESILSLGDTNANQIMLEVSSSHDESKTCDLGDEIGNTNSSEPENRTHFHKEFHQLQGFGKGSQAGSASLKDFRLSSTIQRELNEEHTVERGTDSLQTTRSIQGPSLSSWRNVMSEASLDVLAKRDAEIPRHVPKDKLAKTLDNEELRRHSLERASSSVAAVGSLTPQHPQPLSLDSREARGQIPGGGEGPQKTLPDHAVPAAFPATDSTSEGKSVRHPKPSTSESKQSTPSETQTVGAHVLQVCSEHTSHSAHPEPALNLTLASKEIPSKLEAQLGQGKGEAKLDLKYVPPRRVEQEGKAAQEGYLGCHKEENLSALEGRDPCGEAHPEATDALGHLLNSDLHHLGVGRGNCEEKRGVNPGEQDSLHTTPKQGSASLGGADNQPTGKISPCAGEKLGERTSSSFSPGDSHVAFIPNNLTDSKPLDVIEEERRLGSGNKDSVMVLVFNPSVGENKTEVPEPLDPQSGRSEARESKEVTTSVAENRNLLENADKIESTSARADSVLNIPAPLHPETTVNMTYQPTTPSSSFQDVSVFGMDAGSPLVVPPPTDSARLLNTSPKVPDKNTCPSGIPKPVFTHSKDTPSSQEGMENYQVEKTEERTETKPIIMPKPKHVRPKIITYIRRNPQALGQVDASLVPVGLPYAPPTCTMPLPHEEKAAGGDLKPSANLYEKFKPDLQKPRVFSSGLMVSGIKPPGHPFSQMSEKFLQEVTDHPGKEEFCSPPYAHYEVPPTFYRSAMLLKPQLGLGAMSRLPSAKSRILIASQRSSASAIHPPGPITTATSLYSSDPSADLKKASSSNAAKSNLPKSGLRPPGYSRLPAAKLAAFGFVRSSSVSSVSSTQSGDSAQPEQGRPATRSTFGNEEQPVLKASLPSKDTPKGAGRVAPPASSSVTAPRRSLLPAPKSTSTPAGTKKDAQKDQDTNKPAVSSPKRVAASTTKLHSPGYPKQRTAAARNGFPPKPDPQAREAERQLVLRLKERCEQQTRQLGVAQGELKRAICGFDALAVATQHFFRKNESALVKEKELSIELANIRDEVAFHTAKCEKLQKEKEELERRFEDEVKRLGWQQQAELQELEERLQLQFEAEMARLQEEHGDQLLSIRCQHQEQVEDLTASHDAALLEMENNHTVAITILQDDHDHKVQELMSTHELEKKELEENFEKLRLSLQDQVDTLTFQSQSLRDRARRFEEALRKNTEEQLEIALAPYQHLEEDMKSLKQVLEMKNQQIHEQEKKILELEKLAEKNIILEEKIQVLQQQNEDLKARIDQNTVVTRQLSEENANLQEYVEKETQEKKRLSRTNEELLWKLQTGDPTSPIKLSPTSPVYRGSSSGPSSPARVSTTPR

Troponin T, slow skeletal muscle (Homo sapiens), P13805 R39S, sequence (P13805 whole entry R39S): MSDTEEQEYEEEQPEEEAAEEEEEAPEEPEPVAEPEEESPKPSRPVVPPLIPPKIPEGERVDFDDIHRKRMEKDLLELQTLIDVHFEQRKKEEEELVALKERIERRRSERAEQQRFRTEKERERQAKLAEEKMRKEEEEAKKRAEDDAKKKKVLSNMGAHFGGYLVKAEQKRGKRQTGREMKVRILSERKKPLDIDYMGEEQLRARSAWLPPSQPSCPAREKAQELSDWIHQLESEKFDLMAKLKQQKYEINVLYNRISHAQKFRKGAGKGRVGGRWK
cep70_human CEP70, sequence (Q8NHQ1 whole entry): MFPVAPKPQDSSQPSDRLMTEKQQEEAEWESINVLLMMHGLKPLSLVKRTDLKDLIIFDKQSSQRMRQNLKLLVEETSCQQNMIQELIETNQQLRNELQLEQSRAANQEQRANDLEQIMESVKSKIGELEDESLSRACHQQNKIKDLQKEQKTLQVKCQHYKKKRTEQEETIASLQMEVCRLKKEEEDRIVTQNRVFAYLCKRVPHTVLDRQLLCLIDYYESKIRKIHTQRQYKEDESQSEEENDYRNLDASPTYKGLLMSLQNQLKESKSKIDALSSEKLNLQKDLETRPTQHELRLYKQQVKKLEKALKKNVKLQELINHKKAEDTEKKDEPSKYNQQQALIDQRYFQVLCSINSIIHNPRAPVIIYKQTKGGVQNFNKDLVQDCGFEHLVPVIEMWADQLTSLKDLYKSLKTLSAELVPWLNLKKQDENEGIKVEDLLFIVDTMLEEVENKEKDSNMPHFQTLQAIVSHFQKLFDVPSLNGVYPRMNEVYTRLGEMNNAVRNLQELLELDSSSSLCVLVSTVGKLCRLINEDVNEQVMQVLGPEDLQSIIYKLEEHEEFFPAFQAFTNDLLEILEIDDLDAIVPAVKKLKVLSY
Zinc finger and SCAN domain-containing protein 22 (Homo sapiens), P10073 A321V, sequence (P10073 whole entry A321V, the tested form may be a part): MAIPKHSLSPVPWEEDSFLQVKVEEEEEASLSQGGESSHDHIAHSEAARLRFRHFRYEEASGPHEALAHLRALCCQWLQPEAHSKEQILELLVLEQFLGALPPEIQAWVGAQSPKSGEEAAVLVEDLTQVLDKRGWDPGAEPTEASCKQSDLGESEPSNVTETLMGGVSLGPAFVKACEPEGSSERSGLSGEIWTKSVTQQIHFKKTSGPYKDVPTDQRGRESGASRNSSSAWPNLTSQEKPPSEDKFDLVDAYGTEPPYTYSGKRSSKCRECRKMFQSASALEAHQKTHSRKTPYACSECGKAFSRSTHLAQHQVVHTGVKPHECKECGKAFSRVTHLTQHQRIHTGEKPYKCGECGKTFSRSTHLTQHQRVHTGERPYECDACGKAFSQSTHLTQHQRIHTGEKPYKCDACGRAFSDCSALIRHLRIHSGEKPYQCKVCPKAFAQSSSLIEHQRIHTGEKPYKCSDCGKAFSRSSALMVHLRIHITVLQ
Polypyrimidine tract-binding protein 1 (Homo sapiens), P26599 A173T, sequence (P26599 whole entry A173T): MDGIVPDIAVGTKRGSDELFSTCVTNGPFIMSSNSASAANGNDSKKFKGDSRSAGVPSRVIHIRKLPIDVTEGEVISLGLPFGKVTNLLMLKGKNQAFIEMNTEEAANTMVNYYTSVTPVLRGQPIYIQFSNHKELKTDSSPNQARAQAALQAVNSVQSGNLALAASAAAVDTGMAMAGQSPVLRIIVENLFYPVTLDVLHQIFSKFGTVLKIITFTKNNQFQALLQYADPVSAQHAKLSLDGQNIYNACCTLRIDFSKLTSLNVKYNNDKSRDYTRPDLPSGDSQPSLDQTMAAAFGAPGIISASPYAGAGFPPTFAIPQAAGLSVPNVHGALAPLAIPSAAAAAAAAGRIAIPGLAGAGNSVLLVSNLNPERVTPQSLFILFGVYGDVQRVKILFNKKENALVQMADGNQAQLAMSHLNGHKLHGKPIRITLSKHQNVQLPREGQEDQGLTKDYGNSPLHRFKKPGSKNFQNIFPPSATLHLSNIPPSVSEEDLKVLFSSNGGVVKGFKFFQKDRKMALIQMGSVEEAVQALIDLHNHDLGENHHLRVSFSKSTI
Tyrosine-protein kinase Blk (Homo sapiens), P51451 A71T, sequence (P51451 whole entry A71T): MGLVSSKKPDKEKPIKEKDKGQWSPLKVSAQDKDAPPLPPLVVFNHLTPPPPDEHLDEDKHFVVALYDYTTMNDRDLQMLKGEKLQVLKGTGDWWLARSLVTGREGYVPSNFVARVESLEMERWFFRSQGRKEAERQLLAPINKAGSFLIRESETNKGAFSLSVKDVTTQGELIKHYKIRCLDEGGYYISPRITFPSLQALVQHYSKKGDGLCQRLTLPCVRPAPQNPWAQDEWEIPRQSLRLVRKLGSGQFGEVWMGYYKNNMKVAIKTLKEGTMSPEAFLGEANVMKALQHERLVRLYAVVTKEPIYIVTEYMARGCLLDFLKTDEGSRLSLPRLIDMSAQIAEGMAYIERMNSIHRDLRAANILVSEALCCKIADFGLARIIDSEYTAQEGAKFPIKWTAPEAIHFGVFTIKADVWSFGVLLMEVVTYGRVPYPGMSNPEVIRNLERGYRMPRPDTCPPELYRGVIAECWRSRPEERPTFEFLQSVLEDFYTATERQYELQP
kr101_human KRTAP10-1, sequence (P60331 whole entry): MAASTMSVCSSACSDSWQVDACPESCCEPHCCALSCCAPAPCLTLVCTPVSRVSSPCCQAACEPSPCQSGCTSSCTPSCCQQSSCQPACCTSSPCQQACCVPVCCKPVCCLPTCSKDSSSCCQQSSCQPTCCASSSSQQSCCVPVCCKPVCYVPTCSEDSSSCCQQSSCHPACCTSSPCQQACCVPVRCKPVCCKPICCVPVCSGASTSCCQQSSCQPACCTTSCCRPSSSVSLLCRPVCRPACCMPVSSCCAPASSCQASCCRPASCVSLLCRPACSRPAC
reep6_human REEP6, sequence (Q96HR9 whole entry): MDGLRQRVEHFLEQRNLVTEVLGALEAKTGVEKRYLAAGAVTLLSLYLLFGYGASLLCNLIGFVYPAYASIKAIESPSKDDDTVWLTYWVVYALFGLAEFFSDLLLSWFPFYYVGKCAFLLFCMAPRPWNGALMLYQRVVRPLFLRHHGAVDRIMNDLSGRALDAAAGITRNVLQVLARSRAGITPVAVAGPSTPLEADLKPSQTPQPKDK
Protein S100-A2 (Homo sapiens), P29034 S62N, sequence (P29034 whole entry S62N): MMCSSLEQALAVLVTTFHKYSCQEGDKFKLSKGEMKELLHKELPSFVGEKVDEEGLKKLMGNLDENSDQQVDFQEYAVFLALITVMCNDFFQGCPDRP
ptbp2_human PTBP2, sequence (Q9UKA9 whole entry): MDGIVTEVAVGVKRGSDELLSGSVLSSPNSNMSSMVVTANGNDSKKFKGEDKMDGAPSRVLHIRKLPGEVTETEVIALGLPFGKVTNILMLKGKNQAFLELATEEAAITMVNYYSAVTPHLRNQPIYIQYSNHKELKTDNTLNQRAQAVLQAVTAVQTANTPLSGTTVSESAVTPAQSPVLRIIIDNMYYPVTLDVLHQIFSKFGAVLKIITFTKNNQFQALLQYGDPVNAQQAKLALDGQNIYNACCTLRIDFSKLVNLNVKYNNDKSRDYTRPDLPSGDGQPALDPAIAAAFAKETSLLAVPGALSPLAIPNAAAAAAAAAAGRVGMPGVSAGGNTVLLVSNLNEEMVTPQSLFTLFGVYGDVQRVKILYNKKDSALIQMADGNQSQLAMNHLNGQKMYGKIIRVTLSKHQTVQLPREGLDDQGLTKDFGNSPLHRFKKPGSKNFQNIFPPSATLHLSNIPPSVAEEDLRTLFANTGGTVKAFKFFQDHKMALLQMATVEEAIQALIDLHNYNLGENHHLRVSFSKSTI

Substance: Golgi reassembly-stacking protein 2 (Homo sapiens) (from UniProt Q9H8Y8) S432F
effect of a mutation on the interaction (nqo2_human NQO2): with no effect | effect of a mutation on the interaction (rgs3_human RGS3): with no effect | effect of a mutation on the interaction (stox1_human STOX1): with no effect

Substance: Golgi-associated PDZ and coiled-coil motif-containing protein (Homo sapiens) (from UniProt Q9HD26) L123V
effect of a mutation on the interaction (fosl2_human FOSL2): with no effect | effect of a mutation on the interaction (mycd_human MYOCD): with no effect | effect of a mutation on the interaction (gt253_human CERCAM): with no effect | effect of a mutation on the interaction (vtnc_human VTN): with no effect

Substance: NEDD4-like E3 ubiquitin-protein ligase WWP2 (Homo sapiens), O00308 R315C
effect of a mutation on the interaction (pdli7_human PDLIM7): with no effect | effect of a mutation on the interaction (leg9b_human LGALS9B): with no effect | effect of a mutation on the interaction (anr44_human ANKRD44): with no effect

Substance: Polypyrimidine tract-binding protein 1 (Homo sapiens), P26599 A173T
effect of a mutation on the interaction (snrpa_human SNRPA): with no effect | effect of a mutation on the interaction (ptbp2_human PTBP2): with no effect

Substance: RNA-binding protein FXR2 (Homo sapiens), P51116 K651E
effect of a mutation on the interaction (frih_human FTH1): with no effect | effect of a mutation on the interaction (FBP1): disrupting interaction strength | effect of a mutation on the interaction (phs_human PCBD1): with no effect | effect of a mutation on the interaction (scel_human SCEL): with no effect | effect of a mutation on the interaction (cdkl3_human CDKL3): with no effect | effect of a mutation on the interaction (ptps_human PTS): with no effect | effect of a mutation on the interaction (lcp2_human LCP2): with no effect | effect of a mutation on the interaction (ap2m1_human AP2M1): with no effect | effect of a mutation on the interaction (tb22b_human TBC1D22B): with no effect | effect of a mutation on the interaction (pram_human PRAM1): with no effect

Substance: Toll-interacting protein (Homo sapiens) (from UniProt Q9H0E2) I264V
effect of a mutation on the interaction (tom1_human TOM1): with no effect

Substance: Tyrosine-protein kinase Blk (Homo sapiens), P51451 A71T
effect of a mutation on the interaction (efs_human EFS): with no effect | effect of a mutation on the interaction (stat3_human STAT3): with no effect

Substance: Zinc finger and SCAN domain-containing protein 22 (Homo sapiens), P10073 A321V
effect of a mutation on the interaction (pgbd1_human PGBD1): with no effect | effect of a mutation on the interaction (zn446_human ZNF446): with no effect | effect of a mutation on the interaction (zsc32_human ZSCAN32): with no effect | effect of a mutation on the interaction (zn496_human ZNF496): with no effect

Substance: Zinc finger protein 264 (Homo sapiens), O43296 G166D
effect of a mutation on the interaction (kr101_human KRTAP10-1): with no effect

Other lines, results leading:

effect of a mutation on the interaction (reep6_human REEP6): with no effect | effect of a mutation on the interaction (atrap_human AGTRAP): with no effect | effect of a mutation on the interaction (tfp11_human TFIP11): with no effect
Substance: Atypical kinase COQ8A, mitochondrial (Homo sapiens), Q8NI60 D100Y

effect of a mutation on the interaction (S100A1): with no effect
Substance: Protein S100-A2 (Homo sapiens), P29034 S62N

effect of a mutation on the interaction (ubql1_human UBQLN1): with no effect
Substance: Thioredoxin domain-containing protein 12 (Homo sapiens), O95881 T80M

effect of a mutation on the interaction (rhxf2_human RHOXF2): with no effect | effect of a mutation on the interaction (odam_human ODAM): with no effect
Substance: Toll-interacting protein (Homo sapiens) (from UniProt Q9H0E2) A222S

effect of a mutation on the interaction (naif1_human NAIF1): with no effect
Substance: Transcription factor SOX-14 (Homo sapiens), O95416 A107G

effect of a mutation on the interaction (ccdb1_human CCNDBP1): with no effect | effect of a mutation on the interaction (jkip2_human JAKMIP2): with no effect | effect of a mutation on the interaction (nf2l2_human NFE2L2): with no effect
Substance: Troponin T, slow skeletal muscle (Homo sapiens), P13805 R39S

effect of a mutation on the interaction (cep70_human CEP70 [1]): with no effect
Substance: Zinc finger protein 227 (Homo sapiens), Q86WZ6 P249S

effect of a mutation on the interaction (cep70_human CEP70 [2]): with no effect | effect of a mutation on the interaction (tri41_human TRIM41 [3]): with no effect
Substance: Zinc finger protein 329 (Homo sapiens), Q86UD4 N182D

effect of a mutation on the interaction (zc4h2_human ZC4H2): with no effect | effect of a mutation on the interaction (tri41_human TRIM41 [4]): with no effect | effect of a mutation on the interaction (cep70_human CEP70 [5]): with no effect | effect of a mutation on the interaction (cc136_human CCDC136): with no effect | effect of a mutation on the interaction (mtus2_human MTUS2): with no effect
Substance: Zinc finger protein 490 (Homo sapiens), Q9ULM2 E419K
